# Experimental data taken from the supplement of paper PMC12042874.
# ± gives the uncertainty stated by the source.
# Assay: amyloid nucleation score (Sup35N fusion, yeast selection) (log enrichment); library NNK1; higher = more nucleation; inactive = no reads after selection
# Method in brief: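 Peptides of 20 random codons, each fused to Sup35N, were expressed in psi-negative yeast. Cells were induced with 100 μM copper sulfate for 24 hours and grown 7 days at 30°C on medium lacking adenine and uracil, and plasmid inserts before and after selection were Illumina-sequenced. Nucleation scores are DiMSum log enrichments of output over input reads, centred on the mode score of non-aggregating sequences, and sequences under 100 input reads were excluded.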
row,Substance,amyloid nucleation score
1,RYTLILH,-0.355 ± 0.75
2,DTKIDACIRNSLHGWSRMAR,0.181 ± 0.38
3,RECFRQANFCFMGLSTLGKS,-0.88 ± 0.79
4,EIIFVRLGANEHWSHNVYVS,-0.746 ± 1.2
5,ESGYVLESSVQVENKFIFTT,-2.27 ± 2.4
6,YSAITNGSFQVLV,0.17 ± 0.21
7,SPAFQWHLYPSA,0.592 ± 0.87
8,TYLFSTVGVSGSSMSQVYIV,-0.387 ± 0.46
9,HYIFIRECYCIYLSIAFSQT,0.33 ± 0.36
10,FGMKMGMMRVV,-0.688 ± 1.2
11,MMLSLISVQV,0.379 ± 0.68
12,QNSENMFDINVLTWGCHMAM,inactive
13,VVIESYC,0.593 ± 0.36
14,DINNCSSEGRTYPFVIELPP,1.03 ± 0.76
15,PVLSTYFHAKLQNTWMPGNR,-0.941 ± 0.77
16,DHVSLSDSRKKRSQIGIIHA,0.978 ± 0.45
17,LEGVFAAALSNKMIRYIRDV,1.19 ± 0.53
18,ETMGGLE,0.107 ± 0.9
19,FPSARYNNLT,0.655 ± 0.57
20,GPDRLMDILAMPGGYSMLSM,1.03 ± 0.54
21,IHNFIVSRDRMTGENGSGCM,-0.944 ± 0.41
22,SSPVRGASKSSRGSTNVHAN,0.29 ± 1.1
23,TSMLSGSWSRPDPLTDSSGD,0.517 ± 0.47
24,RSKNWMVNRDWGSKVDRLAN,0.089 ± 0.86
25,SLLGPIGIIQTWIPTHLDLF,inactive
26,CYSAVPIYDFKYRPAGYYIS,inactive

row,Substance,amyloid nucleation score
1,LAPASLSSSGYKNCFNRTVR,4.08 ± 0.11
2,CPMEKSGVELDV,0.094 ± 0.41
3,REWSSYRIVRWYEMCYISTS,-0.158 ± 0.84
4,RKALYA,-0.117 ± 0.38
5,RVCKFKFYQFSSSKC,3.75 ± 0.067
6,SNSLTFYFSKCYTSCSNLLG,6.079 ± 0.057
7,RQSQRWYFLLCGYYKAFFRR,1.63 ± 0.73
8,LFLHVSMVS,-1.31 ± 1.4
9,NSYTCNMFDLVFCAYTIASI,4.95 ± 0.057
10,YFCAMGNHVLVS,-0.389 ± 0.49
11,IMPDNDWKSCILIFSRSILF,2.59 ± 0.15
12,FPNALDYLYVV,-0.243 ± 0.22
13,KCREIALHYPAYIPFVLIAY,-0.031 ± 0.82
14,FKVPVYGWLWETTVVSADTS,-0.131 ± 0.37
15,SKMDGVATRYRYNAMRADVK,0.181 ± 0.2
16,NGYWLSFWTSRY,1.63 ± 0.46
17,SDTLCPSADWVRRSARCQVD,0.8 ± 0.74
18,INFVLMIRMIVSFMNIGRIG,-0.527 ± 1.6
19,FPENGLRSFSCPLVH,0.382 ± 0.66
20,TAYSNG,-0.814 ± 0.74
21,CIDFKSSGAGSTMSWNLVFN,-0.188 ± 0.48
22,QGCMATYSGVGDACWGVRVS,0.678 ± 0.56
23,EFIFFCFVLCYANVMLLWN,0.601 ± 0.42
24,NWVRLFQFILTRYSAFAHFR,-0.264 ± 0.34
25,EFGNVIRVCNLI,-0.289 ± 0.34
26,NTSVLLTVLVG,0.822 ± 0.46

row,Substance,amyloid nucleation score
1,WICVGYIVTTCSPELGEYRQ,inactive
2,WIWVYQTNKIKEMFMRRVWL,inactive
3,YGGISMLLCRSVWRFNRQYI,0.547 ± 0.76
4,SGAVIYANKFYVISCHNWSY,7.478 ± 0.057
5,MGGLRVYRPCVER,-0.437 ± 0.71
6,QHTFQAMISKSNVSEMSPGT,-0.174 ± 0.59
7,IWMFISAVASFNITRSWCYL,2.02 ± 0.13
8,YIWRNKKSAIRCDSKTVRRN,-0.286 ± 0.35
9,VIMCYR,-0.309 ± 0.29
10,HCVEVSYKTSYAKELSFRVC,-0.142 ± 1.1
11,CIDYLRSDC,1.2 ± 0.53
12,LLRGTIFVNDRVTID,0.973 ± 0.59
13,STFAAFSNTVYASCQYLLNG,-1.14 ± 0.93
14,FFALVYW,0.275 ± 0.29
15,FRWYRLRIIKSFSGNSASVR,3.1 ± 0.074
16,SFTVVGLKLTIVRDNNS,3.86 ± 0.12
17,LFDNFIAHMGCSRIPYDSHS,-0.086 ± 0.3
18,SFRACFGPWLFIALIPKNTV,-1.1 ± 0.61
19,KLIVVSLIRDMQSNV,-0.059 ± 0.27
20,KWGVCVLTHLGRYWLLLGCG,-0.145 ± 0.66
21,GLMSLYRQSSSLNRKAGWLT,0.46 ± 0.64
22,GFGSELRYYYMSRGMYRIRP,0.089 ± 0.88
23,QHVFWIYPLPTLSSYGTARS,-0.227 ± 1.9
24,SIEGRSSIQATMCSMLLNGP,-0.197 ± 0.39
25,VPTVCYFSNQVR,-0.434 ± 0.33
26,MRTPGCVMF,-0.44 ± 0.93

row,Substance,amyloid nucleation score
1,TQSSNPTLGGFQFHLWVNIF,-1.85 ± 0.95
2,TDIIFIVRYSVVLVSLCSKC,-0.343 ± 0.69
3,FYTLKFMVKALTVKKGVCVV,inactive
4,FYFGTSDIPGFFNKSIYLVP,0.435 ± 0.38
5,KHWSCRYWEEFGGMDHNLDW,1.1 ± 0.38
6,ELTCWSGDGGVGGILVNVWT,0.565 ± 0.47
7,KLMVHRNDRNPMY,-0.318 ± 0.63
8,KMRVHGLAVHRATQ,-0.737 ± 0.71
9,DKVLQLMYMGLDSGVLPSKD,-0.789 ± 1
10,LIYVLYLY,0.501 ± 0.55
11,KCLTMDFLR,-1.12 ± 1.1
12,YLCFKYVLGCNRWSVAVVNF,inactive
13,ISSTGKIFGFFPLCSYMN,0.041 ± 0.47
14,CRTVAHFRP,0.481 ± 0.61
15,LFLCMDTYIYLNLNSGGYSG,4.8 ± 0.1
16,RYSWSYEKKWIDNLQLVLR,-0.609 ± 0.22
17,NHRNVMRQIDASVMGVYNTW,0.766 ± 1.2
18,MHSPRGLE,1.07 ± 0.79
19,GNAVYMNYFNVLDWNWSL,4.966 ± 0.048
20,FMLCNFLVVIYSGSR,5.82 ± 0.063
21,WQQWGRSPRTR,0.368 ± 0.46
22,YDTTTHMRISMVGSSQPVCL,-0.327 ± 0.3
23,FSSEVRVWVWNCCFNRFSCI,4.74 ± 0.061
24,IVYIWFLSLNFSMMVSFRFP,0.805 ± 0.29
25,SSVSPIHHRLYKTETPMWLT,-0.369 ± 0.58
26,YFCFFSRMFTVEF,2.12 ± 0.64

row,Substance,amyloid nucleation score
1,TRCRWLQ,0.931 ± 0.93
2,PCQFMASSYFHK,inactive
3,KASMMPSDSSCLI,0.911 ± 0.34
4,MWTRHCN,0.483 ± 0.55
5,CLETRYL,1.15 ± 0.54
6,DFRWWYLFC,1.11 ± 0.26
7,ICKDKHAIV,-0.282 ± 0.37
8,SPFLSAFLSFLTSFYLIFMG,-0.164 ± 0.61
9,SLLDMIYVIDTTTKNCILSK,0.983 ± 0.35
10,YCQVYGSVWNFKRYYLATWS,-0.128 ± 0.55
11,PGSWVTESLMTYRLCNLSNV,0.455 ± 0.35
12,LVSQLSFACN,0.92 ± 0.83
13,CRFPCSCHRWSMIRSVVCKR,0.03 ± 0.97
14,VPCNYKGSLSGRRYLSAKQS,0.011 ± 0.34
15,VYSMWTERQFLGMILGGEAG,-0.091 ± 0.85
16,LWNLVLKCD,-0.215 ± 0.29
17,VWLCLRIVVSGNNRACFICV,1.46 ± 0.19
18,ICWLC,6.912 ± 0.055
19,TKCHIQLYIALASVAGGSGF,2.36 ± 0.29
20,NPLHTMFTLYEIRQWRLF,-0.048 ± 0.3
21,CQVVLISWTGSHKGNLEHNA,1.08 ± 0.3
22,CFNMYLDVFDRVCRM,1.85 ± 0.13
23,SRTTAVSYLGNGFVI,-0.573 ± 0.42
24,TSYLLCMEQYYLKEISCRDS,0.688 ± 0.38
